In article PMC8163800, “Extreme parsimony in ATP consumption by 20S complexes in the global disassembly of single SNARE complexes” (Nature Communications, 2021):

B1: SNAP-tag-αSNAP labelled with BG-Alexa647 (natural protein, bovine, UniProt P81125 1-295, looked up)
chain: MDNSGKEAEAMALLAEAERKVKNSQSFFSGLFGGSSKIEEACEIYARAANMFKMAKNWSAAGSAFCQAAHVHLQLQSKHDAATCFVDAGNAFKKADPQEAINCLMRAIEIYTDMGRFTIAAKHHISIAEIYETELVDIEKAIAHYEQSADYYKGEESNSSANKCLLKVAGYAAQLEQYQKAIDIYEQVGTNAMDSPLLKYSAKDYFFKAALCHFCIDMLNAKLAVQKYEELFPAFSDSRECKRIKKLLEAHEEQNVDSYTEAVKEYDSISRLDQWLTTMLLRIKKTIQGDEEDLR
modifications: BG-Alexa647 dye on the SNAP tag
notes: alpha-soluble NSF attachment protein (αSNAP), bovine; also called SNAP-tag-fused αSNAPs; Alexa647-labeled αSNAP; source: expressed in LB medium with IPTG, purified (Ni-NTA, Superdex 200); not shown: SNAP tag (GGSGGSG linker), N-terminal, kept
B2: NSF-SNAP tag (wild-type NSF with a C-terminal SNAP tag), labelled hexamer (enzyme, Chinese hamster)
chain: MAGRSMQAARCPTDELSLSNCAVVSEKDYQSGQHVIVRTSPNHKYIFTLRTHPSVVPGSVAFSLPQRKWAGLSIGQEIEVALYSFDKAKQCIGTMTIEIDFLQKKNIDSNPYDTDKMAAEFIQQFNNQAFSVGQQLVFSFNDKLFGLLVKDIEAMDPSILKGEPASGKRQKIEVGLVVGNSQVAFEKAENSSLNLIGKAKTKENRQSIINPDWNFEKMGIGGLDKEFSDIFRRAFASRVFPPEIVEQMGCKHVKGILLYGPPGCGKTLLARQIGKMLNAREPKVVNGPEILNKYVGESEANIRKLFADAEEEQRRLGANSGLHIIIFDEIDAICKQRGSMAGSTGVHDTVVNQLLSKIDGVEQLNNILVIGMTNRPDLIDEALLRPGRLEVKMEIGLPDEKGRLQILHIHTARMRGHQLLSADVDIKELAVETKNFSGAELEGLVRAAQSTAMNRHIKASTKVEVDMEKAESLQVTRGDFLASLENDIKPAFGTNQEDYASYIMNGIIKWGDPVTRVLDDGELLVQQTKNSDRTPLVSVLLEGPPHSGKTALAAKIAEESNFPFIKICSPDKMIGFSETAKCQAMKKIFDDAYKSQLSCVVVDDIERLLDYVPIGPRFSNLVLQALLVLLKKAPPQGRKLLIIGTTSRKDVLQEMEMLNAFSTTIHVPNIATGEQLLEALELLGNFKDKERTTIAQQVKGKKVWIGIKKLLMLIEMSLQMDPEYRVRKFLALLREEGASPLDFD
modifications: BG-Alexa647 or BG-DY549 dye on the SNAP tag
notes: N-ethylmaleimide sensitive factor (NSF), Chinese hamster, wild type; also called DY549-labeled NSF; SNAP-tag-labeled WT; source: expressed from pET28a in autoinduction LB medium, purified (Ni-NTA, Superdex 200); not shown: SNAP tag (GGSG linker), C-terminal, kept

Experiments:
[1] = biological target: B2; assay: single-molecule fluorescence co-localisation with counting of photobleaching steps (TIRF); SNARE vesicles (1:30,000 protein/lipid) held on NeutrAvidin; 100 nM SNAP-tag-αSNAP, then 1 nM Dylight549-labelled NSF with 1 mM ATP and 1 mM EDTA; H50N50 buffer; details: both partners purified
[2] = biological target: the molecule itself; assay: SEC; Superdex 200 16/600 in NSF buffer (50 mM HEPES pH 7.4, 150 mM NaCl, 1 mM DTT, 1 mM ATP, 1 mM EDTA, 10% glycerol)

Row | binding result [1] | Binder | stoichiometry N [2]
1 | binds | B1 | –
2 | – | B2 | 6
